We go through 8 molecules from PMC3683927.

Holding throughout (assay): SPR
In general terms: SPR reads the build-up and loss of mass on a sensor chip optically.

The target of series [1] is T1, AML1 Runt domain (UniProt Q01196 1-188).
Series [2] addresses AML1 Runt domain V170A (UniProt Q01196 1-188, V170A).
Series [3] has as its target T1, AML1 Runt domain. This is another data set of the same source.

T1 sequence (Q01196 1-188): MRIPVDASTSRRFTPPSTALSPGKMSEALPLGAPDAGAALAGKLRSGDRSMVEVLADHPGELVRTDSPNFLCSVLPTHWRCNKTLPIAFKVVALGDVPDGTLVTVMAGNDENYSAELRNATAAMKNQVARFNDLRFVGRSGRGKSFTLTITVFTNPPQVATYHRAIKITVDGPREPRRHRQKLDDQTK
Sequence of AML1 Runt domain V170A (Q01196 1-188 V170A): as the sequence (Q01196 1-188) above, with V170A counted along it

B1: RDE (dsDNA)
DNA 1: GTCGTTTGCGGTTTGGGGAAAAAAAAAAAAAAAAA
DNA 2: TCCCCAAACCGCAAACGAC
The term Kd denotes the constant that tells how readily two partners part at equilibrium. A higher Kd goes with lower affinity. Consider B1, for which binding in series [1] was characterised by a dissociation constant (Kd) of 9.6 ± 0.2 nM. Besides, the binding result in series [2] is “binds”.

B2: Apt1-S double-stranded (1-18 / 19-37) (dsRNA)
RNA 1: GGGAUGGACGACCCACCA
RNA 2: CGGCGAGGUAUCCCAUCCC
B2: the binding signal in series [3] is ~20 fold reduction in affinity vs Apt1-S.

The molecule GGGAUGGACGACCCACCACGGCGAGGUAUCCCAUCCC (structured_RNA) [Apt1-S] displayed a Kd in series [1] of 0.99 ± 0.02 nM. For the same molecule, the binding result in series [2] is on record as “binds”. As to GGGAUGGACGACCCACCACGGCGCGGUAUCCCAUCCC (structured_RNA) [Apt1-S A24C], the binding result in series [1] is “binds”. GGGAUGGACGACCCACUUUUGCGAGGUAUCCCAUCCC (structured_RNA) [Apt1-S UUUU loop]: the binding result in series [1] is “binds”. In the case of GGGAUGGACGACCCACGAAAGCGAGGUAUCCCAUCCC (structured_RNA) [Apt1-S GAAA loop], in series [1], the binding result is recorded as “binds”. The same measure, in the same setting: under GGGAUGGACGAGCCACCACGGCGAGCUAUCCCAUCCC (structured_RNA) [Apt1-S C12G-G26C] stands “binds”. As for GGGAUGGACGACCCACCACGGCGUGGUAUCCCAUCCC (structured_RNA) [Apt1-S A24U], the binding result in series [1] is listed as “binds”.
